Results on 1 substance are retold here after patent publication US20090233266A1.

The assay addresses C-terminal domain of the NS2 protein of hepatitis C virus, amino acids 94 to 217 of NS2 from HCV genotype 1a strain H77 (residues 903 to 1026 of the HCV polyprotein) (hepatitis C virus genotype 1a strain H77) (UniProt P27958). Kind of assay: X-ray crystal structure.

Substance “C-terminal domain of the NS2 protein of hepatitis C virus, amino acids 94 to 217 of NS2 from HCV genotype 1a strain H77 (residues 903 to 1026 of the HCV polyprotein) (from UniProt P27958) (enzyme)” registered a total buried surface area of 1100 Å^2.
